Data: patent publication US6455314 (GENVEC, dated 2002)
Numbering of substitutions follows the chain as printed. Names and notes keep the numbering of the source.

B1: native Ad5 fiber knob (ligand)
chain: GAITVGNKNNDKLTLWTTPAPSPNCRLNAEKDAKLTLVLTKCGSQILATVSVLAVKGSLAPISGTVQSAHLIIRFDENGVLLNNSFLDPEYWNFRNGDLTEGTAYTNAVGFMPNLSAYPKSHGKTAKSNIVSQVYLNGDKTKPVTLTITLNGTQETGDTTPSAYSMSFSWDWSGHNYINEIFATSSYTFSYIAQE
B2: Ad5-1 mutant Ad5 fiber knob S408E (ligand)
chain: B1 chain with S22E
B3: Ad5-3 mutant Ad5 fiber knob RLNAEK(412-417)SLNGGG (ligand)
chain: B1 chain with R26S, A29G, E30G, K31G
B4: Ad5-2 mutant Ad5 fiber knob P409A (ligand)
chain: B1 chain with P23A
B5: Ad5-5 mutant Ad5 fiber knob K(420)A (ligand)
chain: B1 chain with K34A
B6: Ad5-4 mutant Ad5 fiber knob K(417)G (ligand)
chain: B1 chain with K31G
B7: Ad5-8 mutant Ad5 fiber knob Y(477)A (ligand)
chain: B1 chain with Y91A
B8: Ad5-9 mutant Ad5 fiber knob EGTAY(487-491)GGGGG (ligand)
chain: B1 chain with E101G, T103G, A104G, Y105G

The molecules below were run against coxsackievirus and adenovirus receptor (CAR) (UniProt P78310) (assay: cell-based or functional assay).

With “Ad5-7 mutant Ad5 fiber knob, deletion DPEY(474-477) (from UniProt P11818 387-581) (ligand)” as the molecule, how does the Competition (from IC50 of blocking Ad5-lacZ transduction of A549 cells, β-galactosidase activity) read?
Its Competition (from IC50 of blocking Ad5-lacZ transduction of A549 cells, β-galactosidase activity) is less than 0.1%.

How did the Competition (from IC50 of blocking Ad5-lacZ transduction of A549 cells, β-galactosidase activity) turn out when “Ad5-10 mutant Ad5 fiber knob, deletion TAYT(489-492) (from UniProt P11818 387-581) (ligand)” was run?
The Competition (from IC50 of blocking Ad5-lacZ transduction of A549 cells, β-galactosidase activity) was less than 0.1%.

With “F3K (native) (from UniProt P04501 119-319) (ligand)” as the molecule, how does the Competition (from IC50 of blocking Ad5-lacZ transduction of A549 cells, β-galactosidase activity) read?
The Competition (from IC50 of blocking Ad5-lacZ transduction of A549 cells, β-galactosidase activity) was less than 0.1%.

How did the Competition (from IC50 of blocking Ad5-lacZ transduction of A549 cells, β-galactosidase activity) turn out when “Ad5-6 mutant Ad5 fiber knob, deletion DPE(474-476) (from UniProt P11818 387-581) (ligand)” was run?
Its Competition (from IC50 of blocking Ad5-lacZ transduction of A549 cells, β-galactosidase activity) is less than 20%.

These molecules were tested against T1, coxsackievirus and adenovirus receptor (CAR) (UniProt P78310 20-365) (assay: cell-based or functional assay).
T1 sequence: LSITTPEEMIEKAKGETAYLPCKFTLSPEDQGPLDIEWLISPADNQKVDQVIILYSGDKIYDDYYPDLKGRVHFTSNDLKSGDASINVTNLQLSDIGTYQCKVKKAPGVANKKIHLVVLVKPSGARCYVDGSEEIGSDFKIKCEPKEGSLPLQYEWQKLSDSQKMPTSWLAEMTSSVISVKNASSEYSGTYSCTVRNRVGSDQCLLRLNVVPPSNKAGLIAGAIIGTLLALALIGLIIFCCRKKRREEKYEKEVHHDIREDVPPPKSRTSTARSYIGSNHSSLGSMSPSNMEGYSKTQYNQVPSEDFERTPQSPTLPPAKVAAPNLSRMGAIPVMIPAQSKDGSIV

For B1, which “Competition (from IC50 of blocking Ad5-lacZ transduction of A549 cells, β-galactosidase activity)” value (shortened to “Competition”) is on record?
The value was 100%.

For B2, which “Competition” value is on record?
Its value is less than 0.1%.

How did the “Competition” value turn out when B3 was run?
Its value is less than 0.1%.

How did the “Competition” value turn out when B4 was run?
The value was less than 1%.

With B5 as the molecule, how does the “Competition” value read?
Its value is less than 0.1%.

B6 was tested. Which “Competition” value did it give?
Its value is less than 0.1%.

With B7 as the molecule, how does the “Competition” value read?
The value was less than 0.1%.

Which “Competition” value does the source give for B8 here?
The value was less than 0.1%.
